Results taken from patent publication US20220064329A1 (Novo Nordisk, published 2022).
Numbering of substitutions follows the chain as printed.

T1: recombinant human activated Factor VII (FVIIa) (human, UniProt P08709 61-212; P08709 213-466, Gla domain: ten glutamate residues may be gamma-carboxylated)
T1 sequence 1: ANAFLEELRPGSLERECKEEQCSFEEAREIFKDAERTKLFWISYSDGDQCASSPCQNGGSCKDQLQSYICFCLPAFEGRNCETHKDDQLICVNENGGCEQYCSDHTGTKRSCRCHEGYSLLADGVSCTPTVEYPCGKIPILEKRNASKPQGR
T1 sequence 2: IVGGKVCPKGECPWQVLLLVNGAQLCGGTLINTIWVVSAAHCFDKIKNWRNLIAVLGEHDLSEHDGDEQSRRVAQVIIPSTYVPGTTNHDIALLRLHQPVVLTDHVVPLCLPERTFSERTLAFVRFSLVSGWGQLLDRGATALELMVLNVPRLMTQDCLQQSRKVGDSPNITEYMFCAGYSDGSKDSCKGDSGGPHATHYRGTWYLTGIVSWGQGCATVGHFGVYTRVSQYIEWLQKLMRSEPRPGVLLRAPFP

T2: recombinant human activated FVII (FVIIa) (human, UniProt P08709 61-212; P08709 213-466, ten glutamate residues of the Gla domain may be gamma-carboxylated)
T2 sequence 1: T1 sequence 1
T2 sequence 2: T1 sequence 2

B1: mAb0587 (antibody, V domains shown)
VH: QVQLQQSGAELLKPGASVKISCKATDYTFSRYWIEWVKQRPGHGLEWIGEILPGSVNIKYNEIFKGKATFTAETSSNTAYMQLSSLTSEDSAVYYCTRTPYLQRGAYWGQGTLVTVSA
VL: QIVLTQSPAIMSASPGEKVTITCSASSSVSYMFWFQQKPGTSPKLWIYSTSNLASGVPARFSGSGSGTSYSLTISRMEAEDAATYYCQQRSSYPLTFGAGTKLELK
notes: fully murine, hybridoma-derived; also called 12F39
B2: mAb0578 (antibody, V domains shown)
VH: QVQLQQSGAELMKPGASVKISCKATGYTFNTYWIEWVKQRPGHGLEWIGEILPGRGTTNYNENFKGKATITADISSNTAYLQLSSLTGEDSAVYYCARLTPLSLRTGYWGQGTTLTVSS
VL: DILLTQSPAILSVSPGERVSFSCRASQSIGTSIHWYQQRTNGSPRLLIKYASESISGIPSRFSGSGSGTDFTLSINSVESEDIADYYCQQSNSWPFTFGSGTKLEIK
notes: fully murine, hybridoma-derived; also called 12F19
B3: mAb0007 (antibody, V domains shown)
VH: DVQLQESGPGLVEPSQSLSLTCTVTGYSITSDCAWSWIRQFPGNKLEWMGYINYSGSTNYNPSLKSRISITRDTSKNQFFLRLNSVTGEDTATYYCARSVNYYGNSFAVGYWGQGTSVTVSS
VL: DIVMTQSPATLSVTPGDRVSLSCRASQSISDYLHWYQHKSHESPRLLIKYVSQPISGIPSRFSGSGSGSEFTLSINSVEPEDVGVYYCQNGHSFPLTFGAGTKLELK
notes: fully murine, hybridoma-derived; also called 11F34
B4: mAb0544 (antibody, V domains shown)
VH: B3 VH with E13K, S36N, K76Q, Q78H, R82Q, N84S, G88A, A97T, T116I
VL: DIVMSQSPATLSVTPGDRVSLSCRTSQDIGDYLHWYRQKSHESPRLLIKYTSQSVSGIPSRFSGSGSGSDFTLSINTVEPEDVGLYYCQNGHSFPLTFGTGTRLELK
notes: fully murine, hybridoma-derived; also called 11F9
B5: mAb0005 (antibody, V domains shown)
VH: B3 VH with I70V, N84S, G88A, A97T
VL: B3 VL with P15A, S28G, H38Q, V51T, I55V
notes: fully murine, hybridoma-derived; also called 11F2; mAb005
B6: mAb0552 (antibody, V domains shown)
VH: B3 VH with E13K, S36N, Q78H, R82Q, G88A, N101D, Y103F, T119A
VL: B3 VL with H38Q, V51S, P54S, E70D
notes: fully murine, hybridoma-derived; also called 11F18
B7: biAb0244 (bispecific antibody, human IgG4 S228P, kappa)
heavy 1: QVQLKESGPGLVAPSQSLSITCTVSGFSLTDYGVSWIRQPPGKGLEWLGVIWGGGNTYNNSALKSRLSISKDNSKSQVFLKMNSLQADDTAMYFCAKHGYYGYVMDYWGQGTSVTVSSASTKGPSVFPLAPCSRSTSESTAALGCLVKDYFPEPVTVSWNSGALTSGVHTFPAVLQSSGLYSLSSVVTVPSSSLGTKTYTCNVDHKPSNTKVDKRVESKYGPPCPPCPAPEFLGGPSVFLFPPKPKDTLMISRTPEVTCVVVDVSQEDPEVQFNWYVDGVEVHNAKTKPREEQFNSTYRVVSVLTVLHQDWLNGKEYKCKVSNKGLPSSIEKTISKAKGQPREPQVYTLPPSQEEMTKNQVSLTCLVKGFYPSDIAVEWESNGQPENNYKTTPPVLDSDGSFLLYSKLTVDKSRWQEGNVFSCSVMHEALHNHYTQKSLSLSLGK
light 1: DIVMTQSHKIMSTLVGDRVSITCKASQDVDPAVAWYQQKPGQYPKLLIYWASTRHTGVPDRFTGSGSGTDFTLTISNVQSEDLADYFCQQYSKYPYTFGGGTKLEIKRTVAAPSVFIFPPSDEQLKSGTASVVCLLNNFYPREAKVQWKVDNALQSGNSQESVTEQDSKDSTYSLSSTLTLSKADYEKHKVYACEVTHQGLSSPVTKSFNRGEC
heavy 2: not shown
light 2: DIVMTQTPLSSPVTLGQPASISCRSSQSLVHRQGNTYFHWLQQRPGQPPRLLIYKVSNRFSGVPDRFSGSGAGTDFTLKISRVEAEDVGVYYCSQSTHVPYTFGQGTKLEIKRTVAAPSVFIFPPSDEQLKSGTASVVCLLNNFYPREAKVQWKVDNALQSGNSQESVTEQDSKDSTYSLSSTLTLSKADYEKHKVYACEVTHQGLSSPVTKSFNRGEC
B8: biAb0241 (bispecific antibody, human IgG4 S228P, kappa)
heavy 1: QVQLQESGPGLVKPSQTLSLTCTVSGYSISSDSAWSWIRQPPGKGLEWIGYIQYSGSTNYNPSLKSRVTISRDTSKNQFSLKLSSVTAADTAVYYCARSVNYYGNSFAVGYWGQGTLVTVSSASTKGPSVFPLAPCSRSTSESTAALGCLVKDYFPEPVTVSWNSGALTSGVHTFPAVLQSSGLYSLSSVVTVPSSSLGTKTYTCNVDHKPSNTKVDKRVESKYGPPCPPCPAPEFLGGPSVFLFPPKPKDTLMISRTPEVTCVVVDVSQEDPEVQFNWYVDGVEVHNAKTKPREEQFNSTYRVVSVLTVLHQDWLNGKEYKCKVSNKGLPSSIEKTISKAKGQPREPQVYTLPPSQEEMTKNQVSLTCLVKGFYPSDIAVEWESNGQPENNYKTTPPVLDSDGSFLLYSKLTVDKSRWQEGNVFSCSVMHEALHNHYTQKSLSLSLGK
light 1: EIVLTQSPATLSLSPGERATLSCRASQGISDYLHWYQQKPGEAPRLLIKYTSQPATGIPARFSGSGSGTDFTLTISSLEPEDFAVYYCQNGHSFPLTFGQGTKLEIKRTVAAPSVFIFPPSDEQLKSGTASVVCLLNNFYPREAKVQWKVDNALQSGNSQESVTEQDSKDSTYSLSSTLTLSKADYEKHKVYACEVTHQGLSSPVTKSFNRGEC
heavy 2: not shown
light 2: DIVVSQSPSSLAVSAGEKVTMSCKSSQSLLNSRTRKNYLAWYQQKPGQSPKLLIYWASTRESGVPDRFTGSGSGTDFTLTISSVQAEDLAVYYCKQSYNLLTFGAGTKLELKRTVAAPSVFIFPPSDEQLKSGTASVVCLLNNFYPREAKVQWKVDNALQSGNSQESVTEQDSKDSTYSLSSTLTLSKADYEKHKVYACEVTHQGLSSPVTKSFNRGEC
B9: biAb0242 (bispecific antibody, human IgG4 S228P, kappa)
heavy 1: B8 heavy 1
light 1: B8 light 1
heavy 2: not shown
light 2: SIVMTQTPKFLLVSAGDRVTITCKASQSVSNDVAWYQQKPGQSPKLLINYASSRYTGIPDRFTGSGYGTDFTFTISTVQAEDLAVYFCQQDYSSPYTFGGGTKLEIERTVAAPSVFIFPPSDEQLKSGTASVVCLLNNFYPREAKVQWKVDNALQSGNSQESVTEQDSKDSTYSLSSTLTLSKADYEKHKVYACEVTHQGLSSPVTKSFNRGEC
B10: biAb0243 (bispecific antibody, human IgG4 S228P, kappa)
heavy 1: B8 heavy 1
light 1: B8 light 1
heavy 2: not shown
light 2: DIQMTQTTSSLSASLGDRVTISCRASQDISNYLNWYQQKPDGTVKLLIFYTSRLHSGVPSRFSGSGSGTDYSLTISNLEPEDIATYYCQQDTKLPYTFGGGTKLEMKRTVAAPSVFIFPPSDEQLKSGTASVVCLLNNFYPREAKVQWKVDNALQSGNSQESVTEQDSKDSTYSLSSTLTLSKADYEKHKVYACEVTHQGLSSPVTKSFNRGEC

Each binder was assayed against T1, recombinant human activated Factor VII … (assay: cell-based or functional assay).

Compared with B1, B2 is lower in “AT inhibition (kinh %)” value: 103% for the first, 77% for the second.

Compared with B3, B4 is lower in “AT inhibition (kinh %)” value: 121% for the first, 111% for the second.

Compared with B5, B6 is lower in “AT inhibition (kinh %)” value: 133% for the first, 118% for the second.

Going from B1 to B2, the “TGT activity (% FVIIa)” value falls from 93 % FVIIa to 91 % FVIIa.

First: B3
Second: B4
The “TGT activity (% FVIIa)” value of the first is higher: 113 % FVIIa for the first, 103 % FVIIa for the second.

Going from B5 to B6, the “TGT activity (% FVIIa)” value falls from 115 % FVIIa to 104 % FVIIa.

These binders were tested against T2, recombinant human activated FVII (FVIIa) (assay: cell-based or functional assay).

First: B7
Second: B8
The “Stimulation (fold): FXa generated by FVIIa with lipidated TLT-1 and 100 nM biAb, relative to free FVIIa” value of the first is lower: 2.7 fold for the first, 35.3 fold for the second.

Compared with B9, B10 is higher in “Stimulation (fold): FXa generated by FVIIa with lipidated TLT-1 and 100 nM biAb, relative to free FVIIa” value: 21.8 fold for the first, 25.5 fold for the second.

These binders were tested against T1, recombinant human activated Factor VII … (assay: SPR (Biacore T200), antibody captured on anti-murine IgG, FVIIa injected at 5-135 nM, 1:1 model).
Protocol: Anti-murine IgG (by GE Healthcare) was immobilised on a CM4 sensor chip using standard amine coupling chemistry kit (both supplied by GE Healthcare). […] The running buffer was prepared by diluting 10-fold the 10×HBS-P buffer (supplied by GE Healthcare) and supplemented with 1 mg/ml BSA and 5 mM CaCl₂) to give 10 mM HEPES, 150 mM NaCl, 0.05% v/v Polysorbate 20(P20), pH 7.4, 5 mM CaCl₂), 1 mg/ml bovine serum albumin (BSA). […] Regeneration of the chip was achieved using regeneration buffer consisting of 10 mM Gly-HCl pH 1.7 (supplied by GE Healthcare). Binding data were analysed according to a 1:1 model using BiaEvaluation 4.1 supplied by the manufacturer (Biacore AB, Uppsala, Sweden).

B1 and B2 are within 1.5-fold of each other in Kd: 0.49 nM for the first, 0.58 nM for the second.

B3 and B4 are within 1.5-fold of each other in Kd: 0.25 nM for the first, 0.27 nM for the second.

Going from B5 to B6, the Kd rises from 0.14 nM to 0.76 nM (5.4-fold).
